This is an account of results in patent publication US20170106084A1.

The target of the experiment is T1, human tau(pS422) fragment SEQ ID NO: 03 (human).
T1 sequence (peptide, phosphoserine at 422 (tau numbering); biotinylated): SIDMVDXPQLATLAD
The experiment in a line: ELISA, coated antigen. For orientation: ELISA stands for enzyme-linked immunosorbent assay.

B1: VH32/VL22 (antibody, V domains shown)
VH: EVQVLESGGGLVQPGGSLRLSCAVSGFSLSSNAINWVRQAPGKGLEWVGYIAVSGNTYYASWAKGRFTISRDNSKNTVYLQMNSLRAEDTAVYYCGKSNIWGQGTLVTVSS
VL: AQVMTQSPSSLSASVGDRVTITCRSSQSVRTNRLAWFQQKPGQPPKRLIYSASTLDYGVPSRFSGSGSGTEFTLTISSLQPEDFATYYCLGYFDSSADIVAFGGGTKVEIK
In the case of B1, the EC50 (in general, the concentration at which the effect is half-maximal) was 5.6 ng/mL.

B2: VH00/VL00 (antibody, V domains shown)
VH: QSVEESGGRLVTPGTPLTLTCTVSGFSLSSNAINWVRQAPGKGLEWIGYIAVSGNTYYASWAKGRFTISKASTTVDLKMTSPTAEDTGTYFCGKSNIWGPGTLVTVSL
VL: AQVLTQTTSPVSAAVGSTVTISCQSSQSVRTNKLAWFQQKPGQPPKRLIYSASTLDFGVPSRFSASGSGTQFTLTISDVQCDDAATYYCLGYFDCSIADCVAFGGGTEVVVK
As to B2, the EC50 stood at 6.3 ng/mL.
